B1: ADI-21005 (antibody, V domains shown)
VH: EVQLVESGGAVVQPGGSLRLSCVASGLAFDEYTMHWVRQSSAKGLEWISLISWNGGITYYADSVKGRFTISRDNSKNSLYLQMNSLRTEDTATYFCARLGYGSGSDYGDDYWGQGTLVTVSS
VL: ETTLTQSPGTLSLSPGERATLSCRASQSVSNNYLAWYQQKPGQAPRLLIHGASTRVTGIPARFSGSGSGTDFTLTISRLEPEDFAVYYCHQYHSSPRTFGQGTKVDIK
B2: ADI-20980 (antibody, V domains shown)
VH: QVQLQESGPGLVKPSQTLSLTCSVSGGSVSSGDYYWTWIRQPAGKGLEWIGRIYNSGGTDYSPSLKSRVTISVDTSKNQFSLKLSSVTAADTAVYYCARGRGYYESPWGQGTLVTVSS
VL: EIVLTQSPATLSLSPGERATLSCRASQSVGIYIGWYQQKPGQAPRLLMYDASNRATGIPDRFSGSGSGTDFSLTISSLEPEDFAVYYCQLRSKWLTFGPGTKVEIK
B3: ADI-21013 (antibody, V domains shown)
VH: QVQLQESGPGVVKPSETLSLTCTVSGGSISNTHSYWGWIRQSPGKGLEWIGSIYYTGSTYYNPSFRSRVTLSVDTSKNQFSLKLSSVTAADTAVYYCAAPDYFVLTDYKSTFDYWGRGALVTVSS
VL: DIVMTQSPGTLSLSPGGRATLSCRASQSVGSSSLAWYQQKPGQAPRLLIYGASSRAAGIPDRFSGSGSGTDFTLTINRLEPEDFAMYYCQQYGSSPLTFGGGTKVEIK
B4: ADI-20984 (antibody, V domains shown)
VH: EVQLLETGAEVKKPGASVKVSCHVSGYGLTDLSMHWVRQAPGKRLQWMGSFDPQYGETIDTQNFQGRVTMTVDTSTATLYMQLSGLRSEDTAMYYCATPQSTGALDNWGQGTLVTVSS
VL: DIRVTQSPSSLSASVGDRVTITCRASQSISSYLSWYQQKPGKAPRLVIFAASNLQSGVPSRFSGTGSSRFSDSGSWTDFTLTISSLQPEDFAIYYCQQTYITPFTFGQGTKVDIK
B5: ADI-20966 (antibody, V domains shown)
VH: EVQLLESGGGLGKPGGSLRLSCAASGFKLSSYYMHWVRQAPGKGPEWVSSISASSSYINYADSVRGRFTVSRDNAKNSLFLQMNSLRVDDTAIYYCARGAPLTNFGMVLDSWGQGTLVTVSS
VL: QSVLTQPPSVSGAPGQRVTISCTGSGSNIGAGYDVHWYQQVPGRVPKLLIYANNNRPSGVPDRFSGSKSGTSASLAITGLQADDEADYYCQSYDRSLNVVFGGGTKLTVL
B6: ADI-20987 (antibody, V domains shown)
VH: QVQLVQSGGGVVHPGRSLRLSCAASGFSFSDYGMHWVRQAPGKGLEWVAVIWYDGINKYYADSVKGRFAISRDNSKNTLYLQMNSLRAGDTAVYYCARGGIAAAQRYFDYWGQGTLVTVSS
VL: ETTLTQSPGTLSLSPGERATLSCRASQTVSSSNLAWYQQKPGQAPRLLIYGASSRATGIPDRFSGSGSGTDFTLTISRLEPEDFAVYYCQQSGTSFGQGTKVDIK
B7: ADI-20978 (antibody, V domains shown)
VH: EVQLVESGAEVKKPGASVKVSCKASGYTFGNYGISWVRQAPGQGLEWMGWISAYNGNSNYAQKFQGRVTMTTDTSASTAYMEVRSLRSDDTAVYYCARDVPVTAARLLDYWGQGTLVTVSS
VL: DIVLTQTPLSLPVTLGQPASISCRSSQSLVYSDGNTYLSWFQQRPGQSPRRLIYKVSNRDSGVPDRFSGSGSGTDFTLKISRVEAEDVGVYYCMQATDWLGYTFGQGTKLEIK
B8: ADI-20998 (antibody, V domains shown)
VH: QVQLVQSGGGVVQPGRSLRLSCAASGFTLSTYGMHWVRQAPGKGLEWVAVIYYDESNKFYADSVQGRFTISRDDSKNTLFLQMNSLRAEDTAVYYCARESRPRGYSYSDFDSWGQGTLVTVSS
VL: QPGLTQPRSVSGSPGQSVTISCTGTSSDVGTFNYVSWYQQHPGKAPKLMIYDVNQRPSGVPDRFSGSKSGNTASLTISGLQAEDEADYYCCAYAGYYSFGGGTKLTVL

target: RSV prefusion F (preF), subtype B (respiratory syncytial virus, subtype B); assay: BLI, IgG

Binder	Kd
B1	7.7 nM
B2	0.542 nM
B3	1.79 nM
B4	20.2 nM
B5	0.862 nM
B6	35.6 nM
B7	0.319 nM
B8	1.35 nM
